The target in one experiment is EphA4. Kind of experiment: cell-based or functional assay.
The next experiment has as its target EphB2. Description: cell-based or functional assay.

On to pre-clustered EphrinA1-FC (Fc fusion), for which the One phase association Tau (GPhosEphA ratio fluorescence after Ephrin addition) with EphA4 worked out at 9.6. pre-clustered EphrinB2-FC (Fc fusion): in the experiment with EphB2, the One phase association Tau (GPhosEphB ratio fluorescence after Ephrin addition) is 9.78.

For the origin of these results see patent publication US9012617.
